Source: patent publication US20180273635A1 (Zymeworks, published 2018)

Tests used:
[1] = biological target: T1, Recombinant human HER2 (human, UniProt P04626 23-652); assay: SPR, pre-SEC; ratio to WT v10013;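 note: SPR on Biacore T200 at 25 °C, constructs captured via anti-human Fc on CM5 chip, HER2 ECD as analyte, 1:1 Langmuir global fit, after protein A purification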
T1 construct: extracellular domain; analyte of the SPR assays; also called HER2 ECD; ECD2 of HER2
Description: (§1) The affinity towards HER2 ECD of the samples was measured by SPR on a Biacore T200 as follows. Between 2000 and 4000 RU of anti-human Fc injected at concentration between 5 and 10 μg/ml was immobilized on a CM5 chip using standard amine coupling. Antigen-binding constructs were captured on the anti-human Fc (injected at concentration at 0.51 microg/mL in PBST, 1 min at 10 microl/min) at response levels ranging from 120-270 RU. […] HER2 dilutions were analyzed in duplicates. Sensograms were fit globally to a 1: 1 Langmuir binding model, using the software provided with the Biacore T200. All experiments were conducted at 25° C.
(§2) The affinity of antigen-binding constructs in OA format was determined by SPR following protein A purification. […] Antigen-binding constructs in FSA format were purified by protein A affinity and SEC prior to assessment of affinity by SPR.

[2] = biological target: T1, Recombinant human HER2; assay: SPR, variant captured on anti-human Fc, HER2 flowed, 25 C, pre-SEC;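 note: HER2 extracellular domain binding on Biacore T200, CM5 chip with amine-coupled anti-human Fc, duplicate antigen dilutions, global 1:1 Langmuir fit, measured after protein A purification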
Description: as §1, §2

B1: variant 12495 (antibody, human IgG1, kappa)
heavy: EVQLVESGGGLVQPGGSLRLSCAASGFTFTDYTMDWVRQAPGKGLEWVADVNPNSGGSFYNQRFKGRFTLSVDRSKNTLYLQMNSLRAEDTAVYYCARNLGPSFYFDYWGQGTLVTVSSASTKGPSVFPLAPSSKSTSGGTAALGCLVKDYFPEPVTVSWNSGALTSGVHTFPAVLQSSGLYSLSSVVTVPSSSLGTQTYICNVNHKPSNTKVDKKVEPKSCDKTHTCPPCPAPELLGGPSVFLFPPKPKDTLMISRTPEVTCVVVDVSHEDPEVKFNWYVDGVEVHNAKTKPREEQYNSTYRVVSVLTVLHQDWLNGKEYKCKVSNKALPAPIEKTISKAKGQPREPQVYVYPPSRDELTKNQVSLTCLVKGFYPSDIAVEWESNGQPENNYKTTPPVLDSDGSFALVSKLTVDKSRWQQGNVFSCSVMHEALHNHYTQKSLSLSPG
light: not shown
chain: not shown
notes: OA pertuzumab variant, HC I58F (Kabat); also called v12495
- Ka, mut/Ka, WT [1]: 0.4
- Kd [2]: 50 nM

B2: variant 12496 (antibody, human IgG1, kappa)
heavy: EVQLVESGGGLVQPGGSLRLSCAASGFTFTDYTMDWVRQAPGKGLEWVADVNPNSGGSYYNQRFKGRFTLSVDRSKNTLYLQMNSLRAEDTAVYYCARNLGPSFYFDYWGQGTLVTVSSASTKGPSVFPLAPSSKSTSGGTAALGCLVKDYFPEPVTVSWNSGALTSGVHTFPAVLQSSGLYSLSSVVTVPSSSLGTQTYICNVNHKPSNTKVDKKVEPKSCDKTHTCPPCPAPELLGGPSVFLFPPKPKDTLMISRTPEVTCVVVDVSHEDPEVKFNWYVDGVEVHNAKTKPREEQYNSTYRVVSVLTVLHQDWLNGKEYKCKVSNKALPAPIEKTISKAKGQPREPQVYVYPPSRDELTKNQVSLTCLVKGFYPSDIAVEWESNGQPENNYKTTPPVLDSDGSFALVSKLTVDKSRWQQGNVFSCSVMHEALHNHYTQKSLSLSPG
light: not shown
chain: not shown
notes: OA pertuzumab variant, HC I58Y (Kabat); also called v12496
- Ka, mut/Ka, WT [1]: 0.3
- Kd [2]: 66 nM

B3: variant 12498 (antibody, human IgG1, kappa)
heavy: EVQLVESGGGLVQPGGSLRLSCAASGFTFTDYTMDWVRQAPGKGLEWVADVNPNSGGSIYNKRFKGRFTLSVDRSKNTLYLQMNSLRAEDTAVYYCARNLGPSFYFDYWGQGTLVTVSSASTKGPSVFPLAPSSKSTSGGTAALGCLVKDYFPEPVTVSWNSGALTSGVHTFPAVLQSSGLYSLSSVVTVPSSSLGTQTYICNVNHKPSNTKVDKKVEPKSCDKTHTCPPCPAPELLGGPSVFLFPPKPKDTLMISRTPEVTCVVVDVSHEDPEVKFNWYVDGVEVHNAKTKPREEQYNSTYRVVSVLTVLHQDWLNGKEYKCKVSNKALPAPIEKTISKAKGQPREPQVYVYPPSRDELTKNQVSLTCLVKGFYPSDIAVEWESNGQPENNYKTTPPVLDSDGSFALVSKLTVDKSRWQQGNVFSCSVMHEALHNHYTQKSLSLSPG
light: not shown
chain: not shown
notes: OA pertuzumab variant, HC Q61K (Kabat); also called v12498
- Ka, mut/Ka, WT [1]: 1
- Kd [2]: 19 nM

B4: variant 12499 (antibody, human IgG1, kappa)
heavy: EVQLVESGGGLVQPGGSLRLSCAASGFTFTDYTMDWVRQAPGKGLEWVADVNPNSGGSIYNQRFKGRFTLSVDRDKNTLYLQMNSLRAEDTAVYYCARNLGPSFYFDYWGQGTLVTVSSASTKGPSVFPLAPSSKSTSGGTAALGCLVKDYFPEPVTVSWNSGALTSGVHTFPAVLQSSGLYSLSSVVTVPSSSLGTQTYICNVNHKPSNTKVDKKVEPKSCDKTHTCPPCPAPELLGGPSVFLFPPKPKDTLMISRTPEVTCVVVDVSHEDPEVKFNWYVDGVEVHNAKTKPREEQYNSTYRVVSVLTVLHQDWLNGKEYKCKVSNKALPAPIEKTISKAKGQPREPQVYVYPPSRDELTKNQVSLTCLVKGFYPSDIAVEWESNGQPENNYKTTPPVLDSDGSFALVSKLTVDKSRWQQGNVFSCSVMHEALHNHYTQKSLSLSPG
light: not shown
chain: not shown
notes: OA pertuzumab variant, HC S74D (Kabat); also called v12499
- Ka, mut/Ka, WT [1]: 0.3
- Kd [2]: 69 nM

B5: variant 12500 (antibody, human IgG1, kappa)
heavy: EVQLVESGGGLVQPGGSLRLSCAASGFTFTDYTMDWVRQAPGKGLEWVADVNPNSGGSIYNQRFKGRFTLSVDRYKNTLYLQMNSLRAEDTAVYYCARNLGPSFYFDYWGQGTLVTVSSASTKGPSVFPLAPSSKSTSGGTAALGCLVKDYFPEPVTVSWNSGALTSGVHTFPAVLQSSGLYSLSSVVTVPSSSLGTQTYICNVNHKPSNTKVDKKVEPKSCDKTHTCPPCPAPELLGGPSVFLFPPKPKDTLMISRTPEVTCVVVDVSHEDPEVKFNWYVDGVEVHNAKTKPREEQYNSTYRVVSVLTVLHQDWLNGKEYKCKVSNKALPAPIEKTISKAKGQPREPQVYVYPPSRDELTKNQVSLTCLVKGFYPSDIAVEWESNGQPENNYKTTPPVLDSDGSFALVSKLTVDKSRWQQGNVFSCSVMHEALHNHYTQKSLSLSPG
light: not shown
chain: not shown
notes: OA pertuzumab variant, HC S74Y (Kabat); also called v12500
- Ka, mut/Ka, WT [1]: 1
- Kd [2]: 20 nM

B6: variant 12501 (antibody, human IgG1, kappa)
heavy: EVQLVESGGGLVQPGGSLRLSCAASGFTFTDYTMDWVRQAPGKGLEWVADVNPNSGGSIYNQRFKGRFTLSVDREKNTLYLQMNSLRAEDTAVYYCARNLGPSFYFDYWGQGTLVTVSSASTKGPSVFPLAPSSKSTSGGTAALGCLVKDYFPEPVTVSWNSGALTSGVHTFPAVLQSSGLYSLSSVVTVPSSSLGTQTYICNVNHKPSNTKVDKKVEPKSCDKTHTCPPCPAPELLGGPSVFLFPPKPKDTLMISRTPEVTCVVVDVSHEDPEVKFNWYVDGVEVHNAKTKPREEQYNSTYRVVSVLTVLHQDWLNGKEYKCKVSNKALPAPIEKTISKAKGQPREPQVYVYPPSRDELTKNQVSLTCLVKGFYPSDIAVEWESNGQPENNYKTTPPVLDSDGSFALVSKLTVDKSRWQQGNVFSCSVMHEALHNHYTQKSLSLSPG
light: not shown
chain: not shown
notes: OA pertuzumab variant, HC S74E (Kabat); also called v12501
- Ka, mut/Ka, WT [1]: 0.2
- Kd [2]: 85 nM

B7: variant 12515 (antibody, human IgG1, kappa)
heavy: EVQLVESGGGLVQPGGSLRLSCAASGFTFTDYTMDWVRQAPGKGLEWVADVNPNSGGSIYNQRFKGRFTLSVDRSKNTLYLQMNSLRAEDTAVYYCARNLGPSFYFDYWGQGTLVTVSSASTKGPSVFPLAPSSKSTSGGTAALGCLVKDYFPEPVTVSWNSGALTSGVHTFPAVLQSSGLYSLSSVVTVPSSSLGTQTYICNVNHKPSNTKVDKKVEPKSCDKTHTCPPCPAPELLGGPSVFLFPPKPKDTLMISRTPEVTCVVVDVSHEDPEVKFNWYVDGVEVHNAKTKPREEQYNSTYRVVSVLTVLHQDWLNGKEYKCKVSNKALPAPIEKTISKAKGQPREPQVYVYPPSRDELTKNQVSLTCLVKGFYPSDIAVEWESNGQPENNYKTTPPVLDSDGSFALVSKLTVDKSRWQQGNVFSCSVMHEALHNHYTQKSLSLSPG
light: DIQMTQSPSSLSASVGDRVTITCKASQDVSIGVAWYQQKPGKAPKLLIYSASYRYWGVPSRFSGSGSGTDFTLTISSLQPEDFATYYCQQYYIYPYTFGQGTKVEIKRTVAAPSVFIFPPSDEQLKSGTASVVCLLNNFYPREAKVQWKVDNALQSGNSQESVTEQDSKDSTYSLSSTLTLSKADYEKHKVYACEVTHQGLSSPVTKSFNRGEC
chain: not shown
notes: OA pertuzumab variant, LC T56W (Kabat); also called v12515
- Ka, mut/Ka, WT [1]: 0.8
- Kd [2]: 26 nM

B8: variant 12518 (antibody, human IgG1, kappa)
heavy: EVQLVESGGGLVQPGGSLRLSCAASGFTFRDYTMDWVRQAPGKGLEWVADVNPNSGRSIYNQRFKGRFTLSVDRSKNTLYLQMNSLRAEDTAVYYCARNLGPSFYFDYWGQGTLVTVSSASTKGPSVFPLAPSSKSTSGGTAALGCLVKDYFPEPVTVSWNSGALTSGVHTFPAVLQSSGLYSLSSVVTVPSSSLGTQTYICNVNHKPSNTKVDKKVEPKSCDKTHTCPPCPAPELLGGPSVFLFPPKPKDTLMISRTPEVTCVVVDVSHEDPEVKFNWYVDGVEVHNAKTKPREEQYNSTYRVVSVLTVLHQDWLNGKEYKCKVSNKALPAPIEKTISKAKGQPREPQVYVYPPSRDELTKNQVSLTCLVKGFYPSDIAVEWESNGQPENNYKTTPPVLDSDGSFALVSKLTVDKSRWQQGNVFSCSVMHEALHNHYTQKSLSLSPG
light: not shown
chain: not shown
notes: also called v12518
- Ka, mut/Ka, WT [1]: 0.9
- Kd [2]: 21 nM
